From US11078246B2, “Peptides binding to Bfl-1” (Dana-Farber Cancer Institute, Inc., priority 2015, dated 2021)
Substitutions are numbered along the chain they refer to. Starred links: 1 amine or outer side, 2 acyl side, 3 side chain; linkers in the order of their positions; H or OH if unused. Positions of bridges follow the written chain, without caps; N, C: chain ends. Non-standard residues stand in square brackets, D forms with d. Residues, ends and D or L forms follow the SMILES beside them. No end group written: not given here. *: point of attachment. Nip(3R) = O=C([C@@H]1CCCN([*:1])C1)[*:2]; S5 = C=CCCC[C@](C)(N)C(=O)O; code J = not defined here; Acryloyl = C=CC(=O)*

Assays:
A375P cells = experiment: Cellular uptake by ImageXpress Micro epifluorescence microscopy; assay type: cell-based, human; details: FITC-labeled peptides, 4 h; data not shown
Method: Confocal Microscopy: A375P cells were plated in chambered coverglass (1.5×10^4 cells/well) and cultured as above. […] Cells were washed, stained with MitoTracker Red (Thermo), Hoescht 33342, and imaged live. Confocal images were collected with a Yokogawa CSU-X1 spinning disk confocal (Andor Technology) mounted on a Nikon Ti-E inverted microscope (Nikon Instruments). Images were acquired using a 100×1.4 NA Plan Apo objective lens with an Orca ER CCD camera (Hamamatsu Photonics) and 488 nm laser. Acquisition parameters, shutters, filter positions and focus were controlled by Andor iQ software (Andor Technology). […] Data were collected for five sites per well at 20× magnification, with each treatment performed in triplicate, and then analyzed and quantified using MetaXpress software. […] A custom module in MetaXpress was applied to incrementally recede the CMDR image mask from the cellular border, further restricting the analyzed FITC signal to internalized peptide. The measurement of Total Internalized Fluorescence Intensity (TIFI) represents the level of absolute fluorescence detected per cell, per peptide construct. Maximum and minimum thresholding was utilized to exclude FITC and Cy5 outliers that were much larger and brighter than average, and total intensity and average intensity per cell thresholds were set such that vehicle-treated cells scored negative by the analysis.

[1] = tested on: mouse embryonic fibroblasts (MEFs); experiment: as above; assay type: cell-based; details: FITC-labeled peptides, 4 h; data not shown
A375P melanoma cells = experiment: Cell viability (CellTiter-Glo); assay type: cell-based, human; details: 40 μM, over time
Method: Cell Viability, LDH Release, and Caspase-3/7 Activation Assays: Cancer cells were cultured using their standard culture media containing 10% FBS and penicillin/streptomycin (A375P: DMEM; SK-MEL-2, SK-MEL-28 and MCF-7: EMEM: A549, H929: RPMI). […] Cell viability and caspase 3/7 activation was measured using CellTiter-Glo and Caspase-Glo 3/7 chemiluminescence reagents (Promega), respectively, and luminescence detected by a microplate reader (Spectramax M5, Molecular Devices). LDH release was quantified after 30 min peptide incubation by plate centrifugation at 1500 rpm for 5 min at 4° C., transfer of 100 μL cell culture media to a clear plate (Corning), incubation with 100 μL LDH reagent (Roche) for 30 min while shaking, and measurement of absorbance at 490 nm on a Spectramax M5 microplate reader. Mitochondrial Cytochrme c Release and Biotinylation Assays: A375P cells were plated in 6-well Corning plates (3×10^5 cells/well) and cultured as above. […] Briefly, pelleted cells were resuspended at 1×10^7 cells/mL in permeabilization buffer (20 mM HEPES/KOH pH 7.5, 250 mM sucrose, 50 mM KCl, 2.5 mM MgCl2) supplemented with 0.025% digitonin and protease inhibitors, followed by incubation on ice for 10 min and centrifugation at 13,000 g.

BFL-1ΔC [2] = experiment: Covalent conjugation assay of warhead-bearing SAHBs; assay type: binding, human
Method: For warhead-bearing SAHBs, His-BFL-1ΔC C4S/C19S protein was pretreated with 10 mM DTT in 50 mM Tris pH 8.0, 100 mM NaCl for 30 min at RT (final volume, 9.5 μL), and then combined with a 10:1 molar ratio of NOXA SAHBA or BIM SAHBA peptides bearing warheads 1-8 (final volume, 10 μL) for an additional 2 h incubation at RT. Processing for gel electrophoresis and Coomassie staining was performed as above.

MCL-1ΔNΔC = biological target: T1, MCL-1ΔNΔC (Homo sapiens, UniProt Q07820); experiment: as above; assay type: binding
T1 construct: MCL-1ΔNΔC (aa 170-327) and BCL-XLΔC (aa 1-212) constructs were cloned into pGEX-4T-1; GST (N, cleaved yes); made in house; host or cells: Escherichia coli BL21(DE3)
T1 sequence (Q07820 170-327, stated change not applied): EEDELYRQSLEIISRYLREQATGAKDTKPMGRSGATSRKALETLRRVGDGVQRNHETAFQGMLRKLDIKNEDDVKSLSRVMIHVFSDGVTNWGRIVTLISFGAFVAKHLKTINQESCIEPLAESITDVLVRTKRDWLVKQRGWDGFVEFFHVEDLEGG
Method: Processing for gel electrophoresis and Coomassie staining was performed as above.

BCL-XLΔC = biological target: T2, BCL-XLΔC (Homo sapiens, UniProt Q07817); experiment: as above; assay type: binding
T2 construct: MCL-1ΔNΔC (aa 170-327) and BCL-XLΔC (aa 1-212) constructs were cloned into pGEX-4T-1; GST (N, cleaved yes); made in house; host or cells: Escherichia coli BL21(DE3)
T2 sequence (Q07817 1-212, stated change not applied): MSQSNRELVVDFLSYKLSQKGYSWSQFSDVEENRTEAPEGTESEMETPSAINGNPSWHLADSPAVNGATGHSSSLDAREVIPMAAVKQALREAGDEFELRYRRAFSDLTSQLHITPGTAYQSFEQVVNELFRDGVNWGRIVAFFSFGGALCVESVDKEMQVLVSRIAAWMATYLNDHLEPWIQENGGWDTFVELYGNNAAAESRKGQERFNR

GST-MCL-1ΔNΔC = biological target: T3, GST-MCL-1ΔNΔC (Homo sapiens, UniProt Q07820); experiment: Streptavidin pull-down from anti-apoptotic protein mixture; assay type: binding; details: 1:1:1:1 mixture, 1 μM each, biotinylated SAHB
T3 construct: MCL-1ΔNΔC (aa 170-327) and BCL-XLΔC (aa 1-212) constructs were cloned into pGEX-4T-1; made in house; host or cells: Escherichia coli BL21(DE3)
T3 sequence (Q07820 170-327, stated change not applied): as the sequence (Q07820 170-327, stated change not applied) above
Method: (§1) Streptavidin Pull-down: Recombinant His-BFL-1ΔC, BCL-XLΔC (tagless) and GST-MCL-1ΔNΔC (1 μM each) were combined and reduced with 3 mM DTT in PBS for 30 min at RT, and then incubated with 1 μM biotinylated SAHBA, SAHBA-3 or vehicle for 4 h at RT. The mixtures were then combined with PBS-washed high-capacity SA agarose (Thermo Fisher Pierce) and incubated with rotation for 2 h at RT. The beads were centrifuged at 3000 rpm, washed twice with NP-40 lysis buffer (1% NP40, 50 mM Tris pH 8.0, 100 mM NaCl, 2.5 mM MgCl2), once with PBS, and then bound protein eluted by boiling in 10% SDS containing 10 mg/mL biotin. Inputs (10%) and eluates were electrophoresed on a 12% Bis-Tris gel and then subjected to silver stain and imaging.

His-BFL-1ΔC = biological target: T4, His-BFL-1ΔC (Homo sapiens, UniProt Q16548); experiment: as above; assay type: binding; details: 1:1:1:1 mixture, 1 μM each, biotinylated SAHB; relative to SAHB without warhead
T4 construct: cDNA encoding BFL-1ΔC (aa 1-153) was cloned into the pET19b expression vector; made in house; host or cells: Escherichia coli BL21(DE3) LOBSTR
T4 sequence (Q16548 1-153): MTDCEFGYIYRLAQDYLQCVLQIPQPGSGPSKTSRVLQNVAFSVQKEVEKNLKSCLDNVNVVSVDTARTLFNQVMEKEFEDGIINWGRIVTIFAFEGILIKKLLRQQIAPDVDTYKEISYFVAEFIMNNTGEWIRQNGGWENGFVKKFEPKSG
Method: as §1

BFL-1ΔC [3] = biological target: T5, BFL-1ΔC (Homo sapiens, UniProt Q16548); experiment: Liposomal release assay with SAHBA-3/BFL-1ΔC conjugates; assay type: biochemical; details: BFL-1ΔC covalently conjugated to the peptide, 1.5 μM
T5 construct: cDNA encoding BFL-1ΔC (aa 1-153) was cloned into the pET19b expression vector; made in house; host or cells: Escherichia coli BL21(DE3) LOBSTR
T5 sequence (Q16548 1-153): T4 sequence (Q16548 1-153)
Method: as §1, with “Inputs (10%) and eluates were electrophoresed on a 12% Bis-Tris gel and then subjected to silver stain and imaging.” left out
Large unilamellar vesicles (LUVs) with encapsulated ANTS and DPX were generated and purified as described (Leshchiner et al., 2013; Lovell et al., 2008). The indicated combinations of BAX (400 nM), tBID (40 nM), and BFL-1ΔC or SAHBA-3/BFL-1ΔC conjugates (1.5 μM), were added to liposomes (5 μL) in 384 well plates (final volume, 30 μL), and released fluorophore was measured over 120 min using an M1000 Infinite plate reader (Tecan) with excitation and emission wavelengths of 355 nm and 520 nm, respectively. […] Percent ANTS/DPX release was calculated as [(F−F0)/(F100−F0)]×100, where F0 is baseline fluorescence at time 0, F is the fluorescence recorded for each time point, and F100 is the maximum amount of ANTS/DPX release based on liposomal treatment with 1% Triton X-100.

HA-BFL-1ΔC C4S/C19S = biological target: T6, HA-BFL-1ΔC C4S/C19S (Homo sapiens, UniProt Q16548, C19S/C4S); experiment: Crosslinking in lysates of transfected 293T cells; assay type: binding; details: 293T lysate
T6 construct: cDNA encoding BFL-1ΔC (aa 1-153) was cloned into the pET19b expression vector; expressed in transfected cells; host or cells: 293T
T6 sequence (Q16548 1-153 C4S/C19S): T4 sequence (Q16548 1-153) with C4S, C19S
Method: 293T cells were maintained in DMEM containing 10% FBS and penicillin/streptomycin, and transfections performed with 2 μg pCMV plasmid containing HA-BFL-1ΔC C4S/C19S using X-tremeGENE 9 (Roche). For lysate experiments, cells were trypsinized 24 hours post-transfection, washed with PBS, and lysed by incubation with 1% CHAPS lysis buffer (150 mM NaCl, 50 mM Tris pH 7.4, 100 mM DTT). Protein concentration of the soluble fraction was measured using a BCA kit according to manufacturer's instructions (Thermo Scientific). […] Samples were then boiled in LDS buffer and subjected to western analysis using 1:1000 dilutions of HA (Sigma-Aldrich. #12CA5) and biotin (Abcam, #53494) antibodies. To evaluate the capacity of biotinylated SAHBs to compete with tBID for interactions with BFL-1 and MCL-1, 293T cells were transfected with either HA-BFL-1ΔC C4S/C19S or FLAG-MCL-1 in the p3XFLAG-CMV-10 vector (Sigma) as above. After 24 h, cells were trypsinized, washed with PBS, lysed in 1% CHAPS buffer, and the supernatant collected for protein concentration determination by BCA kit. […] The mixtures were then subjected to HA or FLAG (Sigma-Aldrich, F7425) immunoprecipitation, followed by western analysis using 1:1000 dilutions of HA, FLAG, biotin, and BID (Santa Cruz sc-11423) antibodies. […] Cells were harvested and lysed as above, and incubated overnight with anti-HA agarose beads (Pierce). […]

C=CC(=O)N1CCC[C@@H](C(=O)N[C@H](C(=O)N[C@@H](C)C(=O)N[C@@H](CCC(N)=O)C(=O)N[C@@H](CCC(=O)O)C(=O)N[C@@H](CC(C)C)C(=O)N[C@@H](CCCNC(=N)N)C(=O)N[C@@]2(C)CCCC=CCCC[C@@](C)(C(=O)N[C@@H](Cc3ccccc3)C(=O)N[C@@H](CC(N)=O)C(=O)N[C@@H](C)C(=O)N[C@@H](Cc3ccc(O)cc3)C(=O)N[C@@H](Cc3ccc(O)cc3)C(=O)N[C@@H](C)C(=O)N[C@@H](CCCNC(=N)N)C(=O)N[C@@H](CCCNC(=N)N)C(N)=O)NC(=O)[C@H](CC(=O)O)NC(=O)CNC(=O)[C@H]([C@@H](C)CC)NC2=O)[C@@H](C)CC)C1 [BIM SAHBA-3] (Acryloyl-[Nip(3R)]IAQELR[S5]IGD[S5]FNAYYARR-NH2; staple 8-12; N-terminus and C-terminus assumed)
cellular uptake (A375P cells): equivalent cellular uptake | cellular uptake [1]: equivalent cellular uptake | cytotoxicity compared to BIM SAHBA1 (A375P melanoma cells): significant enhancement in cytotoxicity over time

NOXA SAHBA-3: NOXA SAHBA (aa 21-43) capped at L21 with D-nipecotic acid acrylamide warhead 3; JEVESATQLRXFGDXLNFRQKLL (SEQ ID NO:24) ([code J]EVESATQLR[S5]FGD[S5]LNFRQKLL; staple 11-15; reading uncertain)
reactivity with BFL-1 constructs WT, C4S/C19S, C55S, C4S/C19S/C55S (BFL-1ΔC [2]): exclusive reactivity with the WT and BFL-1 C4S/C19S constructs | reactivity with MCL-1ΔNΔC (MCL-1ΔNΔC): did not react | reactivity with BCL-XLΔC (BCL-XLΔC): did not react | MCL-1ΔNΔC engagement in SA pull-down (GST-MCL-1ΔNΔC): relatively less | BFL-1ΔC engagement in SA pull-down (His-BFL-1ΔC): notably more | BFL-1ΔC suppression of tBID-triggered BAX-mediated liposomal release (BFL-1ΔC [3]): the inhibitory function of BFL-1 was lost | reactivity with other lysate proteins (biotin western) (HA-BFL-1ΔC C4S/C19S): little to no non-specific reactivity | molecular weight shift of HA-BFL-1ΔC C4S/C19S (anti-HA western) (HA-BFL-1ΔC C4S/C19S; biotinylated peptide 10 μM, 2 h): prominent molecular weight shifts
